Laboratory results: US20200079833A1 (AstraZeneca / MedImmune, published 2020)
Starred links: 1 amine or outer side, 2 acyl side, 3 side chain; linkers in the order of their positions; H or OH if unused. Non-standard residues stand in square brackets, D forms with d. Groups on a side chain read outwards from the residue. Primed or numbered codes have the meaning given here. No end group written: not given here. *: point of attachment. γGlu = O=C(O)[C@H](CCC(=O)[*:2])N[*:1]; Stearoyl = CCCCCCCCCCCCCCCCCC(=O)*; Palmitoyl = CCCCCCCCCCCCCCCC(=O)*; αMeF = C[C@](N)(Cc1ccccc1)C(=O)O; αMeK = C[C@](N)(CCCCN)C(=O)O; αMeS = C[C@](N)(CO)C(=O)O; PEG2′ = not defined here; Aib = CC(C)(N)C(=O)O

How the values were obtained:
Experiment in all cases: cell-based or functional assay
[1] = molecular target: GLP-1 receptor (human, UniProt P43220 24-463)
[2] = molecular target: T1, glucose-dependent insulinotropic peptide (gastric inhibitory polypeptide) receptor (human, UniProt P48546 22-466)
T1 sequence (looked up): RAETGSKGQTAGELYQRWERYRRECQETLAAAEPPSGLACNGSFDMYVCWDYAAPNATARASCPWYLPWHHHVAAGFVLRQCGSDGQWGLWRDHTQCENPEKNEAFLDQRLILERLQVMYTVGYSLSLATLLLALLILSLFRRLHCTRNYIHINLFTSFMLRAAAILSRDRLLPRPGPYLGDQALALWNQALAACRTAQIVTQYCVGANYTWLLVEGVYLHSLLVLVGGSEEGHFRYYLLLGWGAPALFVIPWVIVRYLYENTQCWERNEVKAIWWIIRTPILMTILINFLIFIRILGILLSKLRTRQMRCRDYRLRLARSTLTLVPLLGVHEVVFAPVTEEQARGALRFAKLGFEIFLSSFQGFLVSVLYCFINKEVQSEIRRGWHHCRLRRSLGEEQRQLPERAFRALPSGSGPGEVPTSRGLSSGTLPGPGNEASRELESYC

[3] = molecular target: glucagon receptor (human, UniProt P47871 26-477)
Chain of glucagon receptor (P47871 26-477): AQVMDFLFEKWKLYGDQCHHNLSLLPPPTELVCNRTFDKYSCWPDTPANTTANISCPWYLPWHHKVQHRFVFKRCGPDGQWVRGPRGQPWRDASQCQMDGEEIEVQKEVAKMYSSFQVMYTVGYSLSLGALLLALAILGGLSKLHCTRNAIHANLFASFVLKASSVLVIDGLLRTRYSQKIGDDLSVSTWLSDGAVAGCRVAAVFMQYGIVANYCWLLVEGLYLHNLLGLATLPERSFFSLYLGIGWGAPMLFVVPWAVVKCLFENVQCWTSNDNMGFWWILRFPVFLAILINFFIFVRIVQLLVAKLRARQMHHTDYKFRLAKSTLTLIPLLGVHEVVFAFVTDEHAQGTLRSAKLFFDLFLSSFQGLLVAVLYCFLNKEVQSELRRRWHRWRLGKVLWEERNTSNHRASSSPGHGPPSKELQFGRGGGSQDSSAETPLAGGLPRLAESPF

| Primary assay EC50 (cAMP), Mean pM GLP-1R [1] [pM] | Primary assay EC50 (cAMP), n1 [1] [nM] | Primary assay EC50 (cAMP), n2 [1] [nM] | Primary assay EC50 (cAMP), n1 [2] [nM] | Primary assay EC50 (cAMP), n2 [2] [nM] | Primary assay EC50 (cAMP), n1 [3] [nM] | Primary assay EC50 (cAMP), n2 [3] [nM] | Binder |
| --- | --- | --- | --- | --- | --- | --- | --- |
| 0.9 | 0.00085 | 0.00091 | 25 | 25 | 25 | 25 | H[Aib]EGS[αMeF]TSDVSK([PEG2′-PEG2′-PEG2′-Stearoyl])YLEGEAAKE[αMeF]IA[αMeF]VVEGG-NH2 [SEQ ID NO 61] |
| 2.9 | 0.00321 | 0.00255 | 25.7 | 25.7 | 25.7 | 25.7 | H[Aib]EGS[αMeF]TSDVSK([PEG2′-PEG2′-PEG2′-Stearoyl])YLEGEAA[Aib]E[αMeF]IA[αMeF]VVEGG-NH2 [SEQ ID NO 63] |
| 16.9 | 0.0197 | 0.014 | 25.1 | 25.1 | 25.1 | 25.1 | H[Aib]EGS[αMeF]TSDV[αMeS]S[αMeF]LEGEAAKEFIK([PEG2′-PEG2′-γGlu-Stearoyl])WVVEGG-NH2 [SEQ ID NO 65] |
| 49 | 0.049 | 0.05 | 25 | 25 | 25 | 25 | H[Aib]EGS[αMeF]TSDVSK([PEG2′-PEG2′-γGlu-Stearoyl])YLEGEAA[αMeK]E[αMeF]IA[αMeF]VVEGG-NH2 [SEQ ID NO 60] |
| 60.1 | 0.0721 | 0.048 | 25.4 | 25.4 | 25.4 | 25.4 | H[Aib]EGS[αMeF]TSDV[αMeS]S[αMeF]LEGEAA[Aib]EFIK([PEG2′-PEG2′-γGlu-Stearoyl])WVVEGG-NH2 [SEQ ID NO 67] |
| 83 | 0.074 | 0.092 | 27 | 27 | 27 | 27 | H[Aib]EGS[αMeF]TSDV[αMeS]S[αMeF]LEGEAA[αMeK]E[αMeF]IA[αMeF]VV[αMeK]GK([γGlu-Palmitoyl])-NH2 (N-terminus assumed; SMILES CCCCCCCCCCCCCCCC(=O)N[C@@H](CCC(=O)NCCCC[C@H](NC(=O)CNC(=O)[C@](C)(CCCCN)NC(=O)[C@@H](NC(=O)[C@@H](NC(=O)[C@](C)(Cc1ccccc1)NC(=O)[C@H](C)NC(=O)[C@@H](NC(=O)[C@](C)(Cc1ccccc1)NC(=O)[C@H](CCC(=O)O)NC(=O)[C@](C)(CCCCN)NC(=O)[C@H](C)NC(=O)[C@H](C)NC(=O)[C@H](CCC(=O)O)NC(=O)CNC(=O)[C@H](CCC(=O)O)NC(=O)[C@H](CC(C)C)NC(=O)[C@](C)(Cc1ccccc1)NC(=O)[C@H](CO)NC(=O)[C@](C)(CO)NC(=O)[C@@H](NC(=O)[C@H](CC(=O)O)NC(=O)[C@H](CO)NC(=O)[C@@H](NC(=O)[C@](C)(Cc1ccccc1)NC(=O)[C@H](CO)NC(=O)CNC(=O)[C@H](CCC(=O)O)NC(=O)C(C)(C)NC(=O)[C@@H](N)Cc1c[nH]cn1)[C@@H](C)O)C(C)C)[C@@H](C)CC)C(C)C)C(C)C)C(N)=O)C(=O)O) [SEQ ID NO 70] |
| 1200 | 1.2 | 1.2 | 29 | 29 | 29 | 29 | H[Aib]EGS[αMeF]SSEVSS[αMeF]LEGEAA[αMeK]E[αMeF]IA[αMeF]VV[αMeK]GG-NH2 (N-terminus assumed; SMILES CC[C@H](C)[C@H](NC(=O)[C@](C)(Cc1ccccc1)NC(=O)[C@H](CCC(=O)O)NC(=O)[C@](C)(CCCCN)NC(=O)[C@H](C)NC(=O)[C@H](C)NC(=O)[C@H](CCC(=O)O)NC(=O)CNC(=O)[C@H](CCC(=O)O)NC(=O)[C@H](CC(C)C)NC(=O)[C@](C)(Cc1ccccc1)NC(=O)[C@H](CO)NC(=O)[C@H](CO)NC(=O)[C@@H](NC(=O)[C@H](CCC(=O)O)NC(=O)[C@H](CO)NC(=O)[C@H](CO)NC(=O)[C@](C)(Cc1ccccc1)NC(=O)[C@H](CO)NC(=O)CNC(=O)[C@H](CCC(=O)O)NC(=O)C(C)(C)NC(=O)[C@@H](N)Cc1c[nH]cn1)C(C)C)C(=O)N[C@@H](C)C(=O)N[C@@](C)(Cc1ccccc1)C(=O)N[C@H](C(=O)N[C@H](C(=O)N[C@@](C)(CCCCN)C(=O)NCC(=O)NCC(N)=O)C(C)C)C(C)C) [SEQ ID NO 9] |
